Source: publication PMC5937523 (Biochemistry, 2017)
One block for each molecule: values may come before it.

How the values were obtained:
[1] = biological target: KDAC6 (lysine deacetylase 6) (human) (UniProt Q9UBN7)
[2] = biological target: T1, human KDAC8 (lysine deacetylase 8) (human) (UniProt Q9BY41)
T1 sequence: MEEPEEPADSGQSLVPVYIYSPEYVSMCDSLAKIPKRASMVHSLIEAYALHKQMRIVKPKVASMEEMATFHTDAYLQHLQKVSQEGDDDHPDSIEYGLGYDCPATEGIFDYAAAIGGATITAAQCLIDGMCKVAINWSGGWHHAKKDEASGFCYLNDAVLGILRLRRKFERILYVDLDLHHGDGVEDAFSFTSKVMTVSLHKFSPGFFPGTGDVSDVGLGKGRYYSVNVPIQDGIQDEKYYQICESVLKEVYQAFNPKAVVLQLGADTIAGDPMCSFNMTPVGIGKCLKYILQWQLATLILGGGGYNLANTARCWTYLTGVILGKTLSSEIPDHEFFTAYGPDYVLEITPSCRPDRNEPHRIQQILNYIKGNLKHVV

KDAC6 = biological target: T2, KDAC6 (Homo sapiens, UniProt Q9UBN7)
T2 sequence (Q9UBN7 1-1215): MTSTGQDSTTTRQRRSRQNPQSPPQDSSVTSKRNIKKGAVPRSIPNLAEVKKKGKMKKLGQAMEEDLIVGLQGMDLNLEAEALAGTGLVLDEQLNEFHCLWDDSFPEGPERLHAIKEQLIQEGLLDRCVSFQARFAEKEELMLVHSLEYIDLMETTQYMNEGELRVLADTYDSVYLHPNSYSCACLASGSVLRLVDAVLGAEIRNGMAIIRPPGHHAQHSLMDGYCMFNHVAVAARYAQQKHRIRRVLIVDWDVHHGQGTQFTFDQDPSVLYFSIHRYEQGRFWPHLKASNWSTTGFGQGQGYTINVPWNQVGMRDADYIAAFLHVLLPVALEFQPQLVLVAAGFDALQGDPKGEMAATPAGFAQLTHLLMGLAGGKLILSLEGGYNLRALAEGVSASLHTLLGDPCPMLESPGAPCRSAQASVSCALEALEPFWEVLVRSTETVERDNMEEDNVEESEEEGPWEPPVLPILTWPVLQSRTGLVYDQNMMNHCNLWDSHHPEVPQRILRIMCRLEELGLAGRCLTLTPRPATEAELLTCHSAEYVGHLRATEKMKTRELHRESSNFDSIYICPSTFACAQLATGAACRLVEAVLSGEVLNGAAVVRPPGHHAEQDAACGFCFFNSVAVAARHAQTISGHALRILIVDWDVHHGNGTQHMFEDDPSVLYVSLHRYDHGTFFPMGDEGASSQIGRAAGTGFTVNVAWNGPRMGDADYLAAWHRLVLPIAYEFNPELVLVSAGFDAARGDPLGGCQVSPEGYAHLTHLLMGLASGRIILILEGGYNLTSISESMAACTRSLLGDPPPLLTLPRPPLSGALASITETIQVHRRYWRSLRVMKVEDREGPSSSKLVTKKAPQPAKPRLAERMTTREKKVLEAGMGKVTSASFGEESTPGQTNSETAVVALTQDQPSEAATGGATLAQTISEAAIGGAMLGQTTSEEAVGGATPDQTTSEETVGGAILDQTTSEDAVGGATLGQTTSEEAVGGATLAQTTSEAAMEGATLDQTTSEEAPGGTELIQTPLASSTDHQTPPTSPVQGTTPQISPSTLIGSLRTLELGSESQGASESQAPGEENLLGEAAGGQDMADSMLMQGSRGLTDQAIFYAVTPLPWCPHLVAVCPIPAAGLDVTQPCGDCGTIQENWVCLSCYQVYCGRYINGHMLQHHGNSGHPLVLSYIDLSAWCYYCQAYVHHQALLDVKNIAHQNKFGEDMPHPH

Molecule: RG{K-ac} (peptide)
KM of steady-state deacetylation kinetics (fluorescamine assay, 25 °C) [2]: > 5000 µM

Molecule: O=C(CCCCCCC(=O)Nc1ccccc1)NO [SAHA, suberoylanilide hydroxamic acid]
SAHA inhibition of KDAC6 in the presence and absence of AMC (KDAC6): comparable

Further lines, results first:

KM of steady-state deacetylation kinetics (fluorescamine assay, 25 °C) [1]: 70 µM | KM of steady-state deacetylation kinetics (fluorescamine assay, 25 °C) [2]: > 5000 µM
Molecule: {K-ac}W (peptide)

KM of steady-state deacetylation kinetics (fluorescamine assay, 25 °C) [1]: 370 µM | KM of steady-state deacetylation kinetics (fluorescamine assay, 25 °C) [2]: 3100 µM
B1: RH{K-ac}{K-ac} (peptide)
peptide: Ac-RHK(Ac)K(Ac)-NH2

KM of steady-state deacetylation kinetics (fluorescamine assay, 25 °C) [2]: 1200 µM
B2: RH{K-ac}{K-ac}W (peptide)
peptide: Ac-RHK(Ac)K(Ac)W-NH2

KM of steady-state deacetylation kinetics (fluorescamine assay, 25 °C) [2]: 2700 µM
B3: RG{K-ac}W (peptide)
peptide: Ac-RGK(Ac)W-NH2
